The source of these data is publication PMC6882556, “Cryo-EM structure of the KvAP channel reveals a non-domain-swapped voltage sensor topology” (eLife, 2019).

The series deals with the molecule itself. The series is described as follows: cryo-EM structure; KvAP(12-282) tetramer purified as a complex with 6E1 Fab; 20 mM Tris-HCl pH 8.0, 150 mM KCl, 0.06% digitonin; C4 symmetry applied; final map ~5.9 Å.

B1: KvAP, voltage-gated K+ channel from Aeropyrum pernix (residues 12-282) (natural protein, UniProt Q9YDF8 25-295, looked up)
chain: GGRVRNIGDVMEHPLVELGVSYAALLSVIVVVVEYTMQLSGEYLVRLYLVDLILVIILWADYAYRAYKSGDPAGYVKKTLYEIPALVPAGLLALIEGHLAGLGLFRLVRLLRFLRILLIISRGSKFLSAIADAADKIRFYHLFGAVMLTVLYGAFAIYIVEYPDPNSSIKSVFDALWWAVVTATTVGYGDVVPATPIGKVIGIAVMLTGISALTLLIGTVSNMFQKILVGEPEPSCSPAKLAEMVSSMSEEEFEEFVRTLKNLRRLENSMK
notes: KvAP, voltage-gated potassium channel of Aeropyrum pernix, residues 12-282; In the cryo-EM sample the tetramer carried 6E1 Fab fragments on its voltage sensors; also called KvAP tetramer
On to B1, for which the “stoichiometry N” value stood at 4.
